Reference: PMC6030132, “Tailoring recombinant lipases: keeping the His-tag favors esterification reactions, removing it favors hydrolysis reactions” (Scientific Reports, 2018)

Legend:
[1] = test system: T1, CCCCCCCCCC(=O)Oc1ccc([N+](=O)[O-])cc1; test: purified protein; format: biochemical, uncultured bacterium; conditions: apparent constant, free enzyme, 50 mM Tris-HCl pH 7.5, 1 mM CaCl2, 0.6% Triton X-100, 4% isopropanol, 1% acetonitrile, 25 °C, 95% confidence interval in parentheses
T1 construct: full-length lipC12 product (293 residues) from pTEV5lipC12, E. coli BL21(DE3)

[2] = test system: T2, CCCCCCCCCC(=O)Oc1ccc([N+](=O)[O-])cc1; test: purified protein; format: biochemical, uncultured bacterium; conditions: apparent constant, free enzyme, 50 mM Tris-HCl pH 7.5, 1 mM CaCl2, 0.6% Triton X-100, 4% isopropanol, 1% acetonitrile, 25 °C, 95% confidence interval in parentheses
T2 construct: full-length lipC12 product (293 residues) from pTEV5lipC12, E. coli BL21(DE3); His-tag cut off with TEV protease, GASH left at N-terminus

HisTEVS-LipC12 (uncultured bacterium)
Km [1]: 1.77 (1.56–2.02) mM
kcat [1]: 2.53 s⁻¹
kcat/Km [1]: 1430 M⁻¹ s⁻¹

cLipC12 (uncultured bacterium)
Km [2]: 1.33 (1.17–1.51) mM
kcat [2]: 2.52 s⁻¹
kcat/Km [2]: 1900 M⁻¹ s⁻¹
